{
  "source": "patent US12006530B2",
  "about": "“Streptococcal proteases” (priority 2016, dated 2024)",
  "key": {"porcine IgG": {"system": "porcine IgG", "assay": "IgG cleavage by IgdE, SDS-PAGE", "type": "biochemical, pig", "conditions": "purified polyclonal IgG, reducing SDS-PAGE", "procedure": "(A) Schematic illustration of IgdE and the different rIgdE constructs with potential active site residues substitutions and the C-terminal truncation variant. The secretion signal peptide (residues 1-37) is marked in light grey, the transglutaminase domain is boxed and the potential active site residues and substitutions are indicated. (B) 3.3 μM porcine IgG was incubated for 16 h at 37° C. with soluble fractions of E. coli cells expressing different rIgdE constructs. The reaction was analyzed SDS-PAGE under reducing conditions. […] The weak protein band of 37 kDa is a contaminant present in lysate preparation and not related to IgdE activity.\n(§1) 0.5 mg/ml of porcine IgG (Sigma) in PBS or of other species (human, goat, cow, horse and mouse; all Sigma) were incubated with either crude extracts of induced E. coli carrying S. suis IgdE constructs mentioned above or 10 nM purified rIgdE for 16 h at 37° C. prior subjection to SDS-PAGE under either reducing or non-reducing conditions.\n(§2) Samples for SDS-PAGE were prepared with either reducing or non-reducing sample buffer and heated to 95° C. for 5 min. 12% SDS-PAGE was either stained with Coomassie blue (Sigma), Coomassie Fluor™ Orange Protein Gel Stain (Invitrogen) or blotted to Hybond-P PVDF membrane (GE Healthcare) for western blot analyses. Membranes were blocked with 5% dry milk powder in 0.1% PBS-Tween, followed by incubation with horse-radish peroxidase conjugated antibodies. Goat anti-pig IgG-HRP (Thermo Scientific) and goat anti-porcine IgM-HRP (Thermo Scientific) was diluted 1:25′000 and goat anti-porcine IgA-HRP (Thermo Scientific) was diluted 1:12′500. Membranes were thoroughly washed with 0.1% PBS-Tween prior to development with Amersham ECL Select Western blotting detection reagent (GE Healthcare) according to manufactures instruction and pictured by LAS4000 imaging system (Fujifilm)."}, "human IgG": {"system": "human IgG", "assay": "IgG cleavage by IgdE, SDS-PAGE", "type": "biochemical", "conditions": "purified polyclonal IgG, reducing SDS-PAGE", "procedure": "(A) rIgdEagalactiae was incubated with polyclonal IgG of six different species for 18 h at 37° C. and analyzed by SDS-PAGE under reducing conditions. Degradation products are indicated by asterisks (*). Images of different gels have been used to create the figure. (B) rIgdEagalactiae was incubated with human or bovine serum for 18 h in 37° C. and analyzed by SDS-PAGE under reducing conditions. Degradation products are indicated by asterisks (*). (C) Western Blot with crude extracts of rIgdEagalactiae incubated with human and porcine serum for 18 h in 37° C. Membrane was treated with antibodies against human and porcine polyclonal IgG respectively. Degradation products are indicated by asterisks (*). (D) rIgdEagalactiae was incubated with subclasses of human IgG as well as human IgA and IgM for 18 h in 37° C. and analyzed by SDS-PAGE under reducing conditions. Degradation products are indicated by asterisks (*). Images of different gels have been used to create the figure.\nas §1, §2"}, "cow IgG": {"system": "cow IgG", "assay": "IgG cleavage by IgdE, SDS-PAGE", "type": "biochemical", "conditions": "purified polyclonal IgG, reducing SDS-PAGE", "procedure": "as §1, §2"}, "goat IgG": {"system": "goat IgG", "assay": "IgG cleavage by IgdE, SDS-PAGE", "type": "biochemical", "conditions": "purified polyclonal IgG, reducing SDS-PAGE", "procedure": "as §1, §2"}, "horse IgG": {"system": "horse IgG", "assay": "IgG cleavage by IgdE, SDS-PAGE", "type": "biochemical", "conditions": "purified polyclonal IgG, reducing SDS-PAGE", "procedure": "as §1, §2"}, "mouse IgG": {"system": "mouse IgG", "assay": "IgG cleavage by IgdE, SDS-PAGE", "type": "biochemical", "conditions": "purified polyclonal IgG, reducing SDS-PAGE", "procedure": "as §1, §2"}, "rat IgG": {"system": "rat IgG", "assay": "IgG cleavage by IgdE, SDS-PAGE", "type": "biochemical", "conditions": "purified polyclonal IgG"}, "rabbit IgG": {"system": "rabbit IgG", "assay": "IgG cleavage by IgdE, SDS-PAGE", "type": "biochemical", "conditions": "purified polyclonal IgG"}, "IgG in equine serum": {"system": "IgG in equine serum", "assay": "Ig cleavage in equine serum, anti-IgG Western blot", "type": "biochemical, horse"}, "equine IgG1": {"system": "equine IgG1", "assay": "Cleavage of recombinant equine IgG subtypes, SDS-PAGE", "type": "biochemical, horse", "conditions": "0.6 μM, 16 h at 37° C., reducing SDS-PAGE", "procedure": "(§3) 0.6 μM recombinant equine IgG subtypes or serum IgG were incubated for 16 h at 37° C. with (+) or without (−) the soluble fraction of E. coli cells expressing rIgdEequi. Reactions were analyzed by SDS-PAGE under reducing conditions. […] SDS-PAGE was either stained with Coomassie Fluor Orange Protein Gel Stain (A) or subjected to Western blot (B) analyses with Rabbit Anti-Horse IgG H&L (HRP) ab6921."}, "equine IgG2": {"system": "equine IgG2", "assay": "Cleavage of recombinant equine IgG subtypes, SDS-PAGE", "type": "biochemical, horse", "conditions": "0.6 μM, 16 h at 37° C., reducing SDS-PAGE", "procedure": "as §3"}, "equine IgG3": {"system": "equine IgG3", "assay": "Cleavage of recombinant equine IgG subtypes, SDS-PAGE", "type": "biochemical, horse", "conditions": "0.6 μM, 16 h at 37° C., reducing SDS-PAGE", "procedure": "as §3"}, "equine IgG4": {"system": "equine IgG4", "assay": "Cleavage of recombinant equine IgG subtypes, SDS-PAGE", "type": "biochemical, horse", "conditions": "0.6 μM, 16 h at 37° C., reducing SDS-PAGE", "procedure": "as §3"}, "equine IgG5": {"system": "equine IgG5", "assay": "Cleavage of recombinant equine IgG subtypes, SDS-PAGE", "type": "biochemical, horse", "conditions": "0.6 μM, 16 h at 37° C., reducing SDS-PAGE", "procedure": "as §3"}, "equine IgG6": {"system": "equine IgG6", "assay": "Cleavage of recombinant equine IgG subtypes, SDS-PAGE", "type": "biochemical, horse", "conditions": "0.6 μM, 16 h at 37° C., reducing SDS-PAGE", "procedure": "as §3"}, "equine IgG7": {"system": "equine IgG7", "assay": "Cleavage of recombinant equine IgG subtypes, SDS-PAGE", "type": "biochemical, horse", "conditions": "0.6 μM, 16 h at 37° C., reducing SDS-PAGE", "procedure": "as §3"}, "IgG": {"system": "IgG", "assay": "IgG degrading cysteine protease activity: specificity as summarised", "type": "biochemical", "conditions": "summary statement", "description": "Typically, polypeptides for use in accordance with the invention display immunoglobulin cysteine protease activity, and in particular IgG degrading cysteine protease activity. Preferably, the polypeptide cleaves IgG in the hinge region and more particularly in the hinge region of the heavy chain. Preferably, cleavage results in production of Fc and Fab fragments of IgG. Preferably the activity is specific for IgG. The IgG degrading cysteine protease activity may be determined by means of a suitable assay. For example, a test polypeptide may be incubated with IgG at a suitable temperature, such as 37° C. The starting materials and the reaction products may then be analysed by SDS PAGE to determine whether the desired IgG cleavage product is present. Typically this cleavage product is a 32 kDa fragment. Typically there is no further degradation of IgG after this first cleavage. The cleavage product may be subjected to N-terminal sequencing to verify that cleavage has occurred in the hinge region of IgG.\nThe IgG degrading cysteine protease activity of the polypeptides is generally IgG-specific in that the polypeptides may not degrade other classes of Ig, namely IgM, and IgA, when incubated with these immunoglobulins under conditions that permit cleavage of IgG."}},
  "data": [
    {"molecule": "IgdEequi: IgdE isolated from S. equi strain ssp zooepidemicus #1, SEQ ID NO: 7 (protein, listed as Streptococcus equi) MEAWKHGSMEAWKHGSMEAWKHGRTLCKGLLLGLACGAISMSLVVKSTIVVADDVRLSEQSTVILDNTVSNLISEVKDELAKNHQDALEIYILGEGSPKYSGVSPDRLGDYIKDYKPVRLNGKVIHGRAFFMMKKEDQLISTKEEYDRIIAERFSNLEKFDYPTIHYTFNAELKDKYPYLSLILKASGLSLSDSINLGSTLGINGVTIHTQHLRIDNQFAYRYNGEDYKQDSHITFDRFKKNDDKLKELIATSGANQEGLTDAQRVKAYVLYMANHVDYDWDATRYNPDYLIFCQASDLFALTERNKAMCIGFSTAAARGLNLLGIPSYVTYGKNRDGVAHATIRAFYDKKWRTLDVTGVGRGKYTEEHYDNLNTHDYKIFDLTKETNVDLDRGYMEIYKDFEDWILSHNTKELLFINQDANIRNKVAKDVFKYIQEAEKQSLIDKYNEFIIRTSALKAEFKTDRLKEIVGSLVSQAQEELENIKHIEVMTEDEKDQFEYTLRNLGVYYSQCESANQ", "values": [
      {"measurement": "cleavage of polyclonal porcine IgG (32 kDa degradation product)", "setting": "porcine IgG", "value": "No degradation product was observed"},
      {"measurement": "cleavage of polyclonal human IgG (32 kDa degradation product)", "setting": "human IgG", "value": "No degradation product was observed"},
      {"measurement": "cleavage of polyclonal cow IgG", "setting": "cow IgG", "value": "No degradation product was observed"},
      {"measurement": "cleavage of polyclonal goat IgG", "setting": "goat IgG", "value": "No degradation product was observed"},
      {"measurement": "cleavage of polyclonal horse IgG", "setting": "horse IgG", "value": "cleaved"},
      {"measurement": "cleavage of polyclonal mouse IgG", "setting": "mouse IgG", "value": "No degradation product was observed"},
      {"measurement": "cleavage of polyclonal rat IgG", "setting": "rat IgG", "value": "No degradation product was observed"},
      {"measurement": "cleavage of polyclonal rabbit IgG", "setting": "rabbit IgG", "value": "No degradation product was observed"},
      {"measurement": "cleavage of IgG in equine serum", "setting": "IgG in equine serum", "value": "cleaved IgG in equine serum"},
      {"measurement": "cleavage of recombinant equine IgG1", "setting": "equine IgG1", "value": "No degradation product was observed"},
      {"measurement": "cleavage of recombinant equine IgG2", "setting": "equine IgG2", "value": "No degradation product was observed"},
      {"measurement": "cleavage of recombinant equine IgG3", "setting": "equine IgG3", "value": "No degradation product was observed"},
      {"measurement": "cleavage of recombinant equine IgG4", "setting": "equine IgG4", "value": "No degradation product was observed"},
      {"measurement": "cleavage of recombinant equine IgG5", "setting": "equine IgG5", "value": "No degradation product was observed"},
      {"measurement": "cleavage of recombinant equine IgG6", "setting": "equine IgG6", "value": "No degradation product was observed"},
      {"measurement": "cleavage of recombinant equine IgG7 (32 kDa degradation product)", "setting": "equine IgG7", "value": "cleaved"},
      {"measurement": "immunoglobulin specificity of the IgG degrading cysteine protease activity", "setting": "IgG", "value": "specific for equine IgG, and specifically equine IgG7"}
    ]}
  ]
}
